# According to article PMC2820462, “Inhibition of receptor tyrosine kinase signalling by small molecule agonist of T-cell protein tyrosine phosphatase” (BMC Cancer, 2010):
# T1: T-cell protein tyrosine phosphatase, 45 kDa form (TC45) (UniProt P17706-2 1-387)
# T1 sequence (looked up): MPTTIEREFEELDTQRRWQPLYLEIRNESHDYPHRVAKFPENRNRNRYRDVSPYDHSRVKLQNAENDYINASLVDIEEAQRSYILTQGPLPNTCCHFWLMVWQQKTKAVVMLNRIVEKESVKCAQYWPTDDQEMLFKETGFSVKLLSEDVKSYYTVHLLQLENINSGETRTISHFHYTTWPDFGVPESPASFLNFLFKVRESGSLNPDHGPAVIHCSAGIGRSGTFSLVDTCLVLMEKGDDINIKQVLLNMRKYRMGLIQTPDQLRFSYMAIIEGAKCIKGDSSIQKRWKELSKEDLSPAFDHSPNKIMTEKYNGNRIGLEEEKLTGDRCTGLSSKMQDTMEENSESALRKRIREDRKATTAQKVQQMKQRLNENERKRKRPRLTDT
# Target: T1, T-cell protein tyrosine phosphatase, 45 …
# Assay: cell-based or functional assay
binder,measurement,value
"RPLKKKMEK [α1-cyt peptide (α1 cytoplasmic specific sequence lacking the conserved domain, RPLKKKMEK)]",activation of recombinant TC45 in DiFMUP phosphatase assay by 10 μM α1-cyt peptide,2.4 fold
